The values that follow come from US20220017622A1 (Pfizer, published 2022).

Positions count from the first letter of the chain named.

Assay [1] deals with T1, human B7-H4 extracellular domain (human, UniProt Q7Z7D3 29-258).
T1 construct: Soluble ECD used as SPR analyte; also called huB7-H4 ECD; huB7-H4
T1 sequence: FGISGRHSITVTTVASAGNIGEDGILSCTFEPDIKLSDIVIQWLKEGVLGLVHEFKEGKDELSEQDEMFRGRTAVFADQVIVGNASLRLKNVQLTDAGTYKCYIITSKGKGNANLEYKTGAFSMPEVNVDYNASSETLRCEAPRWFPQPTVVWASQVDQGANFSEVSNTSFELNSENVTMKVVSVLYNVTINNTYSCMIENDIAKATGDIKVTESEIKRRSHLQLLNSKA
The experiment in a line: SPR 37 C; IgG1 on anti-hFc chip, ECD analyte.

Assay [2] addresses T2, mouse B7-H4 extracellular domain (mouse, UniProt Q7TSP5 29-258).
T2 construct: Soluble ECD used as SPR analyte; also called muB7-H4 ECD; muB7-H4
T2 sequence: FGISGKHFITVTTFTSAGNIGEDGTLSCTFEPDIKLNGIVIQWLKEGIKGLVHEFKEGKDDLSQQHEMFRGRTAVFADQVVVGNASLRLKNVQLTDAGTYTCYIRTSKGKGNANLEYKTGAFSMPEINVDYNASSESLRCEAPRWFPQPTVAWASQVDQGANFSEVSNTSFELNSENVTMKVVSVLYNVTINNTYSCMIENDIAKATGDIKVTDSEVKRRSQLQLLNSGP
The experiment in a line: SPR 37 C; IgG1 on anti-hFc chip, ECD analyte.

The target of assay [3] is T3, cyno B7-H4 extracellular domain (cyno, UniProt Q7Z7D3 29-258 (human entry)).
T3 construct: Soluble ECD used as SPR analyte; also called cyB7-H4 ECD; cyB7-H4
T3 sequence: T1 sequence with L49I
Kind of assay: SPR 37 C; IgG1 on anti-hFc chip, ECD analyte.

Assay [4] concerns the target T1, human B7-H4 extracellular domain. The experiment in a line: SPR 37 C; bispecific on anti-hFc chip, ECD analyte.
Assay [5] concerns the target T3, cyno B7-H4 extracellular domain. Kind of assay: SPR 37 C; bispecific on anti-hFc chip, ECD analyte.
Assay [6] deals with T2, mouse B7-H4 extracellular domain. The experiment in a line: SPR 25 C; bispecific on anti-hFc chip, ECD analyte.
The target in assay [7] is T1, human B7-H4 extracellular domain. Kind of assay: SPR 25 C; bispecific on anti-hFc chip, ECD analyte.
For assay [8], the target named is T3, cyno B7-H4 extracellular domain. The experiment in a line: SPR 25 C; bispecific on anti-hFc chip, ECD analyte.
For another assay, the target named is T4, human B7-H4 on cells (human, UniProt Q7Z7D3 25-282).
T4 sequence (looked up): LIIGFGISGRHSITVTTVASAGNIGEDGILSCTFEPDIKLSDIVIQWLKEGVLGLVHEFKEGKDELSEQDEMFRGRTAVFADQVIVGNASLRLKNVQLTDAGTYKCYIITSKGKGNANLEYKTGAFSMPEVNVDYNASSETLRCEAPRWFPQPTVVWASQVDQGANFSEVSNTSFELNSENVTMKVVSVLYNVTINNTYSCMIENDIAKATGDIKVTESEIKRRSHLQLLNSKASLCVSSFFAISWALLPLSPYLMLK
The experiment in a line: cell-based or functional assay.

The target of assay [9] is T5, human CD3 (delta/epsilon heterodimer) (human, UniProt P07766 23-126; P04234 22-105).
T5 construct: captured on an anti-His chip, so it carries a His tag; also called huCD3
T5 sequence (P07766 23-126, stated change not applied, chain 1 of 2): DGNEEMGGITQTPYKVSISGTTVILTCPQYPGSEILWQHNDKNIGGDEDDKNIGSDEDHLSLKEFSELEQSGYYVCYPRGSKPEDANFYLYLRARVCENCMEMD
T5 sequence (P04234 22-105, stated change not applied, chain 2 of 2): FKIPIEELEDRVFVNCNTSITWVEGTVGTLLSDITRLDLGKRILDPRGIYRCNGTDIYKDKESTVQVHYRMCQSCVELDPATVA
The experiment in a line: SPR 25 C; CD3 delta/epsilon on anti-His chip, bispecific analyte.

Assay [10] concerns the target T6, cyno CD3 (delta/epsilon heterodimer) (cyno, UniProt Q95LI5 22-117; Q95LI8 22-105).
T6 construct: also called cyCD3
The description is as above.

For assay [11], the target named is T7, human B7-H4 on human tumor cell lines (human, UniProt Q7Z7D3 25-282).
T7 sequence (looked up): T4 sequence (looked up)
Kind of assay: cell-based or functional assay.

T6 sequence (Q95LI5 22-117, stated change not applied, chain 1 of 2): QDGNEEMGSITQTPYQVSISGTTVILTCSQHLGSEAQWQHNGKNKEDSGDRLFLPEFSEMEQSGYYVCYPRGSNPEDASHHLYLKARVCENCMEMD
T6 sequence (Q95LI8 22-105, stated change not applied, chain 2 of 2): as the sequence (P04234 22-105, stated change not applied, chain 2 of 2) above, with I5V, N15K, I20V, S32T, D33N, I34N, T64A, S74N, V83L counted along it

B1: B7-H4 antibody 0052 (antibody, human IgG1, kappa, V domains shown)
VH: QVQLQQWGAGLLKPSETLSLTCAVYGGSFSGYYWNWIRQPPGKGLEWIGEINHSGSTKYNPSLKSRVTISGDTSKNQFSLKLNSVTAADTAVYYCVRGLYNWNVDSWGQGTLVTVSS
VL: DIQMTQSPSSLSASVGDRVTITCRASQGIRNDLGWYQQKPGKAPKRLIYVASSLQSGVPSRFSGSGSGTEFTLTISSLQPEDFATYYCLQHNSYPYTFGQGTKLEIKR
notes: IgG1 mAb format; parental; also called 28D10
In general, Kd refers to the equilibrium constant for the complex coming apart. The low end stands for tighter binding, the high end for weaker binding. The koff is the rate constant with which the complex falls apart. One may read the kon as the second-order rate constant of association. On to B1, for which, in assay [1], the Kd was determined as 12.1 nM, the koff was 0.00565 s⁻¹ and the kon was determined as 467000 M⁻¹ s⁻¹. In assay [2], the Kd is 883 nM, the koff was determined as 0.126 s⁻¹ and the kon is 143000 M⁻¹ s⁻¹. Also, in assay [3], binding was put at a Kd of 30.7 nM, the koff stood at 0.00424 s⁻¹ and the on-rate constant (kon) is 139000 M⁻¹ s⁻¹.

B2: B7-H4xCD3 bispecific antibody 0080 (bispecific antibody, IgG2)
heavy 1: QVQLQQWGAGLLKPSETLPLTCAVYGGSFSGYYWNWIRQPPGKGLEWIGEINHSGSATYNPSLKSRVTISVDTSKNHFSLKLSSVTAADTAVYFCARGLYNWNVDHWGQGTLVTVSSASTKGPSVFPLAPCSRSTSESTAALGCLVKDYFPEPVTVSWNSGALTSGVHTFPAVLQSSGLYSLSSVVTVPSSNFGTQTYTCNVDHKPSNTKVDKTVERKCEVECPECPAPPVAGPSVFLFPPKPKDTLMISRTPEVTCVVVAVSHEDPEVQFNWYVDGVEVHNAKTKPREEQFNSTFRVVSVLTVVHQDWLNGKEYKCKVSNKGLPSSIEKTISKTKGQPREPQVYTLPPSREEMTKNQVSLTCEVKGFYPSDIAVEWESNGQPENNYKTTPPMLDSDGSFFLYSKLTVDKSRWQQGNVFSCSVMHEALHNHYTQKSLSLSPGK
light 1: DIQMTQSPSSLSASVGDRVTITCRASQGIRNDLGWYQQKPGKAPKRLIYAASSLQSGVPSRFSGSGSGTEFTLTISSLQPEDFATYYCLQHNSYPRTFGGGTKVEIKRTVAAPSVFIFPPSDEQLKSGTASVVCLLNNFYPREAKVQWKVDNALQSGNSQESVTEQDSKDSTYSLSSTLTLSKADYEKHKVYACEVTHQGLSSPVTKSFNRGEC
heavy 2: EVQLVESGGGLVQPGGSLRLSCAASGFTFSDYYMTWVRQAPGKGLEWVAFIRNQARGYTSDHNPSVKGRFTISRDNAKNSLYLQMNSLRAEDTAVYYCARDRPSYYVLDYWGQGTTVTVSSASTKGPSVFPLAPCSRSTSESTAALGCLVKDYFPEPVTVSWNSGALTSGVHTFPAVLQSSGLYSLSSVVTVPSSNFGTQTYTCNVDHKPSNTKVDKTVERKCRVRCPRCPAPPVAGPSVFLFPPKPKDTLMISRTPEVTCVVVAVSHEDPEVQFNWYVDGVEVHNAKTKPREEQFNSTFRVVSVLTVVHQDWLNGKEYKCKVSNKGLPSSIEKTISKTKGQPREPQVYTLPPSREEMTKNQVSLTCLVKGFYPSDIAVEWESNGQPENNYKTTPPMLDSDGSFFLYSRLTVDKSRWQQGNVFSCSVMHEALHNHYTQKSLSLSPGK
light 2: DIQMTQSPSSLSASVGDRVTITCTSSQSLFNVRSQKNYLAWYQQKPGKAPKLLIYWASTRESGVPSRFSGSGSGTDFTLTISSLQPEDFATYYCKQSYDLFTFGGGTKVEIKRTVAAPSVFIFPPSDEQLKSGTASVVCLLNNFYPREAKVQWKVDNALQSGNSQESVTEQDSKDSTYSLSSTLTLSKADYEKHKVYACEVTHQGLSSPVTKSFNRGEC
notes: Chains 1-2: B7-H4 arm; chains 3-4: CD3 arm; IgG2 EEE/RRR; also called anti-B7-H4 clone 7H7
B2: the Kd was found to be 6.08 nM in [4]; 12.8 nM in assay [5]; 74.8 nM in assay [6]; 2.39 nM in assay [7]; 4.29 nM in [8]; 12.7 nM in assay [9]. The Kd in assay [10] stood at 13.3 nM. The koff in assay [4] came to 0.00283 s⁻¹; in [5], 0.00282 s⁻¹; in assay [6] it was 0.0138 s⁻¹; in assay [7], 0.000692 s⁻¹; in assay [8], 0.000676 s⁻¹; in assay [9] it was 0.00521 s⁻¹. The koff in [10] came out at 0.00493 s⁻¹. Also, the kon in assay [4] was determined as 465000 M⁻¹ s⁻¹; in assay [5], 220000 M⁻¹ s⁻¹; in assay [6] it was 189000 M⁻¹ s⁻¹; in assay [7], 296000 M⁻¹ s⁻¹; in assay [8] it was 157000 M⁻¹ s⁻¹; in assay [9], 411000 M⁻¹ s⁻¹. The same molecule gave a kon in assay [10] of 372000 M⁻¹ s⁻¹. In the assay with human B7-H4 on cells, the “T cell mediated tumor cell killing EC50, HCC1954-Luc” value amounted to 36 nM.

B3: B7-H4xCD3 bispecific antibody 1167 (bispecific antibody, IgG2)
heavy 1: EVQLLESGGGLVQPGGSLRLSCAASGFTFSSYAMSWVRQAPGKGLEWVSAISGGGGSTYYADSVKGRFTISRDNSKNTLYLQMNSLRAEDTAVYYCARDIQWYGESTLFDYWGQGTLVTVSSASTKGPSVFPLAPCSRSTSESTAALGCLVKDYFPEPVTVSWNSGALTSGVHTFPAVLQSSGLYSLSSVVTVPSSNFGTQTYTCNVDHKPSNTKVDKTVERKCEVECPECPAPPVAGPSVFLFPPKPKDTLMISRTPEVTCVVVAVSHEDPEVQFNWYVDGVEVHNAKTKPREEQFNSTFRVVSVLTVVHQDWLNGKEYKCKVSNKGLPSSIEKTISKTKGQPREPQVYTLPPSREEMTKNQVSLTCEVKGFYPSDIAVEWESNGQPENNYKTTPPMLDSDGSFFLYSKLTVDKSRWQQGNVFSCSVMHEALHNHYTQKSLSLSPGK
light 1: DIQMTQSPSSLSASVGDRVTITCRASQSTRSHLAWYQQKPGKAPKLLIYKASSLEGGVPSRFSGSGSGTDFTLTISSLQPEDFATYYCQQYGSYSRTFGQGTKVEIKRTVAAPSVFIFPPSDEQLKSGTASVVCLLNNFYPREAKVQWKVDNALQSGNSQESVTEQDSKDSTYSLSSTLTLSKADYEKHKVYACEVTHQGLSSPVTKSFNRGEC
heavy 2: B2 heavy 2
light 2: B2 light 2
Take B3: in assay [11], the “EC50 (nM) of Antibody 1167 in inducing redirected T cell killing in vitro, HCC1954 cells (B7-H4 density 20039 per cell)” value is 0.8 nM; the “EC50 (nM) of Antibody 1167 in inducing redirected T cell killing in vitro, MDA-MB-453 cells (B7-H4 density 1198 per cell)” value was found to be 8.44 nM; the “EC50 (nM) of Antibody 1167 in inducing redirected T cell killing in vitro, MDA-MB-468 cells (B7-H4 density 83936 per cell)” value stood at 0.4 nM; the “EC50 (nM) of Antibody 1167 in inducing redirected T cell killing in vitro, MX1 cells (B7-H4 density 108684 per cell)” value was 0.062 nM. Further, the “EC50 (nM) of Antibody 1167 in inducing redirected T cell killing in vitro, T47D cells (B7-H4 density 6133 per cell)” value in [11] is 0.54 nM.
